Several values for one entry are separate records, joined by “and”; a condition that tells them apart may be missing. Equal values may be shown once.

For this assay, the target named is T1, human prolactin receptor (human, UniProt P16471 25-622).
T1 sequence (looked up): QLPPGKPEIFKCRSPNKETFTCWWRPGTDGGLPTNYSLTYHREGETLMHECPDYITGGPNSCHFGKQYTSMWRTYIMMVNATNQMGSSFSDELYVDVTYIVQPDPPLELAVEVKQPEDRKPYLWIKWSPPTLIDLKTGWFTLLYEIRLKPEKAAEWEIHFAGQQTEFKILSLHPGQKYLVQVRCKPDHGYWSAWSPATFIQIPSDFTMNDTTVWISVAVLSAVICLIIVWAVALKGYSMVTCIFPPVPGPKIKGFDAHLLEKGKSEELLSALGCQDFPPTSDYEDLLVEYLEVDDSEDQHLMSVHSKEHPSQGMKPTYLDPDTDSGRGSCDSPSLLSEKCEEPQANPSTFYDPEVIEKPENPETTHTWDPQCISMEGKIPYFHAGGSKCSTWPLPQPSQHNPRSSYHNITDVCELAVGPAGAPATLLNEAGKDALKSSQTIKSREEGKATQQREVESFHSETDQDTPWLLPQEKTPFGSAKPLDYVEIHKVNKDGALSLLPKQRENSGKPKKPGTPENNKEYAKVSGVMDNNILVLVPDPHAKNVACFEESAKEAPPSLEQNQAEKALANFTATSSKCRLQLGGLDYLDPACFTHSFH
Briefly: cell-based or functional assay.

Regarding “G129R variant of human prolactin (from UniProt P01236 29-227) (ligand)”, the T47-D cell proliferation (96 well MTS assay) (molar ratio hPRL-G129R:hPRL) is 1 and 2; the apoptosis (DNA fragmentation, TUNEL assay) in T-47D cells came out at 1; the tyrosine phosphorylation of STAT proteins in T47-D cells (anti-phosphotyrosine immunoblot) (ratio hPRL-G129R:hPRL) turned out to be 5.

B1: human prolactin (ligand, UniProt P01236 29-227, looked up)
chain: LPICPGGAARCQVTLRDLFDRAVVLSHYIHNLSSEMFSEFDKRYTHGRGFITKAINSCHTSSLATPEDKEQAQQMNQKDFLSLIVSILRSWNEPLYHLVTEVRGMQEAPEAILSKAVEIEEQTKRLLEGMELIVSQVHPETKENEIYPVWSGLPSLQMADEESRLSAYYNLLHCLRRDSHKIDNYLKLLKCRIIHNNNC
Consider B1, for which the “apoptosis (DNA fragmentation, TUNEL assay) in T-47D cells” value was 4 ratio hPRL:G129R.

The values are drawn from patent US20030022833A1 (GREENVILLE HOSPITAL SYSTEM, published 2003).
